Assay [1] concerns the target T1, endogenous sFlt-1 in pre-eclamptic patient serum (human, UniProt P17948-2 27-687, limits assumed).
T1 construct: Native protein in patient serum; the isoform is not defined; also called circulating sFlt-1
The experiment in a line: 0.1 mL column of antibody-conjugated beads, pre-eclamptic patient serum. The procedure:
(§1) Circulating sEng and sFlt-1 proteins are elevated in pre-eclampsia patients and are postulated to be major causal factors of disease onset and progression. To test whether a cENG10/AG10B dual device is capable of removing these endogenous sEng and sFlt-1 proteins from patient serum, micro-scale 0.1 mL columns conjugated with cENG10, AG10B, or both cENG10 and AG10B MAbs were prepared. cENG10 column specifically removed>90% of endogenous sEng in pre-eclamptic serum but not endogenous sFlt-1, and the AG10B column specifically removed>90% of endogenous sFlt-1 in pre-eclamptic serum but not endogenous sEng. The cENG10/AG10B dual device column, in which a mixture of the two antibodies at 1 mg each per mL beads were conjugated simultaneously, removed>90% of both sEng and sFlt-1 proteins.

For assay [2], the target named is T2, endogenous sEng in pre-eclamptic patient serum (human, UniProt P17813 26-586).
T2 construct: Native protein in patient serum; the isoform or cleavage product is not defined; also called circulating sEng
T2 sequence (looked up): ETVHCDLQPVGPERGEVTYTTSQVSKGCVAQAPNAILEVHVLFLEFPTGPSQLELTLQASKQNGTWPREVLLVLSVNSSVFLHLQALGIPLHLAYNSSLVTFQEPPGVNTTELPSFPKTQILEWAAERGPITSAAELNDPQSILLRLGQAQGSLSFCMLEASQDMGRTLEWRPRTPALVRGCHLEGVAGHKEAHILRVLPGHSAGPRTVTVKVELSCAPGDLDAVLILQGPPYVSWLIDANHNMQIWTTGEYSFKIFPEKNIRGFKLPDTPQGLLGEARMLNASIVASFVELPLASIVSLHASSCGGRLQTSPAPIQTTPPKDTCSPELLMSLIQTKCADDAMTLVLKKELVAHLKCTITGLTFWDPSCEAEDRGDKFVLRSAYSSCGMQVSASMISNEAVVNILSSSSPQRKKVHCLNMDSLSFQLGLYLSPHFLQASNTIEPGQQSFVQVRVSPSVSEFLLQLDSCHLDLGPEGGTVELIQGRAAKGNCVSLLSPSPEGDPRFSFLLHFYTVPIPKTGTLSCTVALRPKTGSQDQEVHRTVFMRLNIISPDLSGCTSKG
Described as above. The protocol: as §1

In assay [3] the target is T3, purified recombinant human sEng (human Endoglin ectodomain residues 26 to 586 with C-terminal 6x His tag, … (human, UniProt P17813 26-586)).
T3 construct: range 26-586; also called spiked sEng; recombinant human sEng (amino acid residues 26-586)
T3 sequence: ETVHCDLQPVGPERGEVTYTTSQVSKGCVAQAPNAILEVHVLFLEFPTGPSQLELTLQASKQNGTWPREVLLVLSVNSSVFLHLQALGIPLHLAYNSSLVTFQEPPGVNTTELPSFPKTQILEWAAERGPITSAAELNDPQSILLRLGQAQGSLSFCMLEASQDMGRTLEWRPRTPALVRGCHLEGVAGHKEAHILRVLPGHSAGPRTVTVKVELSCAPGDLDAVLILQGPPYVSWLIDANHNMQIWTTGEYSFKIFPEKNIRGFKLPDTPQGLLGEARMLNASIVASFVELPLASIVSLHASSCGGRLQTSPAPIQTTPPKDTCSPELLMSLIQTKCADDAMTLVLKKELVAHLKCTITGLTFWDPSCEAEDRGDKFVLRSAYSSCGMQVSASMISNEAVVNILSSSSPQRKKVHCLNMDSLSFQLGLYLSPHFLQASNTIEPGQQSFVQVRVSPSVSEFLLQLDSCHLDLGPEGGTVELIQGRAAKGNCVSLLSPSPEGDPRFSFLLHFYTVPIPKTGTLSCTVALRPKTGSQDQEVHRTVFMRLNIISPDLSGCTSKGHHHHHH
The experiment in a line: 1 mL column, 0.2 mg MAb per mL Sepharose beads, flow rates 0.25-2.00 mL/min; input vs flow-through. The protocol:
A 1-ml cENG10 device column was evaluated for depletion of spiked sEng in horse serum. For each column, 0.2 mg cENG10 or AG10B MAb was covalently conjugated to 1 mL of CNBr-activated Sepharose 4FF beads for 0.2 mg per mL beads ratio. For each test, 10 mL of serum containing 60 ng/mL of sEng, median concentration in severe pre-eclampsia patients, was applied for one cycle over the column. The first 1 ml containing pre-equilibration buffer was not collected in the flow-through (FT) fraction and the last 1 mL of input remaining in column was chased with 1 CV of PBS buffer and pooled into the FT fraction. The % sEng depletion was calculated by dividing the difference in concentration between input and FT by input concentration: […]

From patent US20230056992A1 (AGGAMIN, published 2023) come the findings set out here.

T1 sequence (P17948 other isoform, or with tags, fused parts or gaps limits assumed): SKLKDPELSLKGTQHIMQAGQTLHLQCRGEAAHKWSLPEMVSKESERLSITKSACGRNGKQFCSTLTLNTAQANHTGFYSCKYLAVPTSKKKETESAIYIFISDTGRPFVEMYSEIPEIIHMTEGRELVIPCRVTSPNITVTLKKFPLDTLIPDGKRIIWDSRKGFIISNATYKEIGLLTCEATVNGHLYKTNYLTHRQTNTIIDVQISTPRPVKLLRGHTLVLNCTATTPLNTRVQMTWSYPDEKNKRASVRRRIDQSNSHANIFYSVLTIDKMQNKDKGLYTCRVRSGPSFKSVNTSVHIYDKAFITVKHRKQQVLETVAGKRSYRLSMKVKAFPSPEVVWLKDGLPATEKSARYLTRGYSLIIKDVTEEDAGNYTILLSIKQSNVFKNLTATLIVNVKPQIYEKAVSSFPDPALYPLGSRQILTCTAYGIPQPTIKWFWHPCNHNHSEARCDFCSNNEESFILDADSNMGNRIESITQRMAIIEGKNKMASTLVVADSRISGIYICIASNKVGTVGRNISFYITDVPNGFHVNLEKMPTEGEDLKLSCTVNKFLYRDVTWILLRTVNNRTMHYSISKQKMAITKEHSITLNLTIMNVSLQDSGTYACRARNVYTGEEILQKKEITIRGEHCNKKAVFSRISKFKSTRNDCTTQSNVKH

B1: chimeric anti-sEng antibody cENG10 (antibody, human IgG1, kappa, N297Q, V domains shown)
VH: EVQLEQSGPEVVKPGTSVKISCKTSGYTITEHTLHWIKQNQGKSLEWIGGINFDNGGTTYRQKFKDKATLTVDKSSSTAFMELRSLTSDDSAVYFCARRAYYYGSAFDYWGQGTTLTVSS
VL: ENVLTQSPAIMSASLGEKVTMTCRASSSVNYVYWYQQKSDASPKLWIYYTSNLAPGVPARFSGSGSGNSYSLTISSMEGEDAATYYCQQFISFPYTFGGGTKLEIKR
notes: Chimeric mouse/human IgG1 kappa with N300Q; also called anti-human sEng MAb; cENG10 column
For the molecule B1, the binding result in assay [1] is “no binding”.

B2: chimeric anti-sFlt-1 antibody AG10B (antibody, V domains shown)
VH: QVQLQQSGPELVKPGASVKMSCKASGYTFTDYVISWVKQRTGQGLEWIGEIYPGSGSIYYNEKFKGKATLTADTSSNTAYMQLSSLTFEDSAVIFCARGHYYGYFDYWGQGTTLTVSS
VL: DIVMTQSHKFMSTSVGDRVSITCKASQDVTITVAWYQQKPGQSPKLLIYSASYRYTGVPDRFTGSGSGTDFTFTISSVQAEDLAVYYCQQHYTTPWTFGGGTKLEIKR
notes: Chimeric mouse/human IgG1 kappa with N298Q; It served as the negative control for sEng depletion; also called AGB10; AB10B
Take B2: the binding result is recorded as “no binding” in assay [2] and “no binding (tested: 60 ng/mL sEng in 10 mL horse serum)” in assay [3].
